“Also recorded” adds a separate entry of the source. Read-outs that look alike come from different tables or passages of the source.
How the values were obtained:
[1] = IP glucose tolerance test (IPGTT model); format: in vivo, C57BL/6 male mice
[2] = ob/ob mouse model Study 1: PEG30-S-MAL-FMS-OXM variants at 2000 nmol/kg; format: in vivo, male ob/ob mice; conditions: 2000 nmol/kg sc
Method: Terminal samples on day 19 were analyzed for cholesterol.

[3] = ob/ob mouse model Study 2: chronic MOD-6031, OXM, liraglutide pharmacology; format: in vivo, male ob/ob mice
Method: Body weight, food and water intake were recorded daily. […] Body weight, food and water intake were measured daily.

[4] = ob/ob mouse model Study 3: MOD-6031 vs PEG30-Fmoc-OXM vs PEG30-EMCS-OXM; format: in vivo, male ob/ob mice
Method: Forty-two male ob/ob mice (7 weeks of age, Charles River, Italy) were acclimatized to the facility (10 days) followed by handling protocol whereby animals were handled as if to be dosed but were actually not weighed or dosed. Subsequently, animals underwent baseline period for 1 week in which each animal have been dosed twice by the subcutaneous route with PEG30-SH in volume of 20 ml/kg. Body weight, food and water intake were recorded daily, and samples were taken for non-fasting and fasting glucose measurements and non-fasting and fasting insulin measurements. Animals were subsequently allocated into three treatment, control and pair-fed groups (group A, N=10, groups B-E, N=8) based on plasma glucose, body weight and daily food and water intake. […] It was given the daily food ration equal to that eaten by its paired counterpart in group B the previous day. As such, animals in Group E will be one day out of phase with Group B in all study procedures and measurements. During the study, animals were dosed every four days (days: 1, 5, 9, 13, 17, 21, 25 and 29) as describes in table 3. […] Several procedures and sampling have been performed: non-fasting glucose on days 1, 6, 14, 22 and 29, fasting glucose on days 10, 18 and 26. On days 2 and 30 fasting glucose samples have been taken as part of an OGTT procedure, in which insulin was measured in parallel to glucose. Terminal samples on day 33 were analyzed for cholesterol, triglycerides and fructosamine.

[5] = Hydrolysis rate of MOD-6031 in phosphate buffer at different pH; format: physicochemical
[6] = Ex-vivo hydrolysis rate of MOD-6031 in rat plasma; format: in vitro ADME
Method: (§1) After evaporation to dryness and reconstitution, the extracts were analysed by LC-MS/MS. […] Incubation at temperatures of 35° C., 37° C. and 41° C. was examined in rat plasma. […] For human plasma, both pooled and individual samples were measured using plasma derived from male and female subjects. […] The hydrolysis was stopped at the designated time point by freezing the sample at −70° C. […] For each condition, three independent samples were prepared. Samples were incubated at a given temperature of either 35° C., 37° C. or 41° C. All samples were stored at −70° C. prior to analysis. […] Temperature, wherein hydrolysis was tested at temperatures of 35° C., 37° C., and 41° C.; and • c. Plasma source, wherein hydrolysis was tested in plasma samples obtained from rat, cynomolgus monkeys and human. For human plasma, both pooled and individual samples were used, and hydrolysis rates were measured separately for plasma from males and females. […] At designated time points, samples were taken for LC-MS/MS analysis.

[7] = Ex-vivo hydrolysis rate of MOD-6031 in cynomolgus monkey plasma; format: in vitro ADME
Method: as §1

[8] = Ex-vivo hydrolysis rate of MOD-6031 in human plasma; format: in vitro ADME
Method: as §1

[9] = Viscosity analysis (Brookfield rheometer); format: physicochemical
Method: Viscosity was measured with a Brookfield rheometer (DV-III Ultra). For each formulation, viscosity was obtained from the average of five shear rate (Sec^−1) readouts (15.0, 30.0, 45.0, 60.0 and 75.0) at a controlled temperature of 25° C. Processing of the data was done using Rheocalc® software (Brookfield).
Conditions included concentration, buffer type, pH, and NaCl. Buffers were formed by interaction of base part of the buffer and the trifluoro acetic acid (TFA) that co-eluted with the […] (DS). […]

[10] = mouse, in vivo, sc
[11] = biological target: T1, dipeptidyl peptidase IV (DPPIV) (Homo sapiens, UniProt P27487); assay: DPPIV digestion assay by RP-HPLC; conditions: pH = 6
T1 sequence (P27487 whole entry, species assumed): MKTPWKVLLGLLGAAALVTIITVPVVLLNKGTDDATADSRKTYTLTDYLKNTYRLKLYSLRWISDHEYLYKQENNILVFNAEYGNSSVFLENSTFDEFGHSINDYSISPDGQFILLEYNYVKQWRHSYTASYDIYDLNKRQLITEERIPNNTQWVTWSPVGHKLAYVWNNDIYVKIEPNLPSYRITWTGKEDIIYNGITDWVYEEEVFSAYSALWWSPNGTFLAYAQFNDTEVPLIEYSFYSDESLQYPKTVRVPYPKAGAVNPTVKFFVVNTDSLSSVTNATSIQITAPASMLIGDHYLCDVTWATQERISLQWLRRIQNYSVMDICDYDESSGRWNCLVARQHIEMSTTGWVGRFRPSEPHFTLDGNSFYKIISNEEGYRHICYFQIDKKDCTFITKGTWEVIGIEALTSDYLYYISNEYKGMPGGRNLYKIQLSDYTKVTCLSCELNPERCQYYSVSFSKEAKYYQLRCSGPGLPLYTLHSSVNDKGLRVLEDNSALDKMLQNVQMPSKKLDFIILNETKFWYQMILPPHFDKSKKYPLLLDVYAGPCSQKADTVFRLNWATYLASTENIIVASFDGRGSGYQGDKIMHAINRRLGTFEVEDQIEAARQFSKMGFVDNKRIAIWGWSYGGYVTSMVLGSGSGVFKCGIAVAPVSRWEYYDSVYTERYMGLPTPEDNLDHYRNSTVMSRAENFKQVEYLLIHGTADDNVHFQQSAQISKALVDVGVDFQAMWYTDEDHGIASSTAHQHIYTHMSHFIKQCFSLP

[12] = biological target: T1, dipeptidyl peptidase IV (DPPIV)
[13] = blood glucose, 100 nmol/kg peptide content IP 15 min prior to glucose 1.5 gr/kg IP
[14] = control PEG-SH, 100 nmol/kg peptide content IP
[15] = 6000 nmol/kg sc every four days
[16] = 6000 nmol/kg, glucose 2 g/kg po
[17] = Monkey (lot# CYN128421) plasma 37° C.
[18] = Monkey (lot# CYN128423) plasma 37° C.
[19] = Human female (pool) plasma 37° C.
[20] = Human male (pool) plasma 37° C.

MOD-6031
glucose tolerance (in words) ([1]; IPGTT, compared to vehicle PEG-SH): slightly less potent
AUC (0-180) [1, 13]: 15781
AUC (−60-180) [1, 13]: 19891
% AUC from control, AUC (0-180) [1, 14]: 70.1%
% AUC from control, AUC (−60-180) [1, 14]: 74.1%
ability to reduce weight, inhibit food intake and improve glycemic control (in words) [2]: superior efficacies
non-fasting glucose (in words) [2]: improvement of non-fasting glucose
final reduction of body weight (on day 18) compared to vehicle (PEG-SH) group ([2]; days 1, 5, 9, 13 and 16): 4.9%
body weight reduction at the conclusion of the study (day 33) ([3]; 1000 nmol/kg sc twice a week): 5.2%
body weight reduction at the conclusion of the study (day 33) ([3]; 3000 nmol/kg sc twice a week): 12.3%
body weight and food consumption (in words) ([3]; 3000 nmoles/kg twice a week): significantly reduced
body weight reduction at the conclusion of the study (day 33) ([3]; 6000 nmol/kg sc twice a week): 28.3%
food intake and body weight (in words) ([3]; 6000 nmol/kg twice a week): significantly reduced
glucose tolerance, OGTT days 2 and 30 (in words) ([3]; 1000, 3000 and 6000 nmoles/kg, glucose 2 g/kg po): significantly and dose-dependently improved
terminal cholesterol (in words) ([3]; day 33): dose-dependently reduced
terminal glucose (in words) ([3]; study termination, day 33): dose-dependently reduced
terminal plasma insulin (in words) ([3]; study termination, day 33): markedly reduced
Final reduction changes in body weight (on day 33) compared to control (PEG-SH) [4, 15]: 25.4%
fasting glucose (in words) [4, 15]: significant improvement
non-fasting glucose (in words) [4, 15]: significant improvement
terminal plasma lipidic profiles and fructosamine (in words) ([4]; 6000 nmol/kg, day 33): significant reduction
glucose profile, Day 30 OGTT (in words) [4, 16]: significant improved glucose profile
glucose tolerance, day 2 OGTT (in words) [4, 16]: significantly improved glucose tolerance
Cl/F_obs ([5]; Phosphate pH = 6.8): 0.061 (mg)/(μg/ml)/h
MRT0-∞ ([5]; Phosphate pH = 6.8): 47.4 h
Cl/F_obs ([5]; Phosphate pH = 7.4): 0.133 (mg)/(μg/ml)/h
MRT0-∞ ([5]; Phosphate pH = 7.4): 20.3 h
Cl/F_obs ([5]; Phosphate pH = 7.8): 0.227 (mg)/(μg/ml)/h
MRT0-∞ ([5]; Phosphate pH = 7.8): 10.7 h
Cl/F_obs ([6]; Table 10, Rat plasma 35° C.): 0.120 (mg)/(μg/ml)/h
MRT0-∞ ([6]; Table 10, Rat plasma 35° C.): 14.7 h
Cl/F_obs ([6]; Table 10, Rat plasma 37° C.): 0.129 (mg)/(μg/ml)/h
MRT0-∞ ([6]; Table 10, Rat plasma 37° C.): 14.7 h
Cl/F_obs ([6]; Table 10, Rat plasma 41° C.): 0.179 (mg)/(μg/ml)/h
MRT0-∞ ([6]; Table 10, Rat plasma 41° C.): 9.6 h
Cl/F_obs ([6]; Table 11, Rat plasma 37° C.): 0.056 (mg)/(μg/ml)/h
MRT0-∞ ([6]; Table 11, Rat plasma 37° C.): 13 h
hydrolysis rate, effect of temperature (in words) ([6]; rat plasma, 41° C. compared with 35° C. or 37° C.): incubation at 41 °C resulted in a higher hydrolysis rate
Cl/F_obs [7, 17]: 0.172 (mg)/(μg/ml)/h
MRT0-∞ [7, 17]: 5 h
Cl/F_obs [7, 18]: 0.043 (mg)/(μg/ml)/h
MRT0-∞ [7, 18]: 15 h
Cl/F_obs [8, 19]: 0.102 (mg)/(μg/ml)/h
MRT0-∞ [8, 19]: 9 h
Cl/F_obs ([8]; Human female A plasma 37° C.): 0.125 (mg)/(μg/ml)/h
MRT0-∞ ([8]; Human female A plasma 37° C.): 8 h
Cl/F_obs ([8]; Human female B plasma 37° C.): 0.136 (mg)/(μg/ml)/h
MRT0-∞ ([8]; Human female B plasma 37° C.): 9 h
Cl/F_obs ([8]; Human female C plasma 37° C.): 0.143 (mg)/(μg/ml)/h
MRT0-∞ ([8]; Human female C plasma 37° C.): 7 h
Cl/F_obs [8, 20]: 0.064 (mg)/(μg/ml)/h
MRT0-∞ [8, 20]: 14 h
Cl/F_obs ([8]; Human male A plasma 37° C.): 0.133 (mg)/(μg/ml)/h
MRT0-∞ ([8]; Human male A plasma 37° C.): 8 h
Cl/F_obs ([8]; Human male B plasma 37° C.): 0.148 (mg)/(μg/ml)/h
MRT0-∞ ([8]; Human male B plasma 37° C.): 7 h
Cl/F_obs ([8]; Human male C plasma 37° C.): 0.146 (mg)/(μg/ml)/h
MRT0-∞ ([8]; Human male C plasma 37° C.): 7 h
hydrolysis rate in different plasma types (in words) ([8]; rat, cynomolgus monkey and human plasma, 37° C.): comparable hydrolysis rate in most of the plasma samples; also recorded: very similar
Viscosity ([9]; 100 mM Acetate, 100 mM Sucrose, pH 4.7, 66 mg/ml): 20.41 cp
Viscosity ([9]; 100 mM Acetate, 100 mM Sucrose, pH 4.7, 72 mg/ml): 23.91 cp
Viscosity ([9]; 100 mM Acetate, 100 mM Sucrose, pH 4.7, 77 mg/ml): 26.08 cp
Viscosity ([9]; 100 mM Acetate, 100 mM Sucrose, pH 4.7, 80 mg/ml): 30.02 cp
Viscosity ([9]; 100 mM Acetate, 100 mM Sucrose, pH 4.7, concentration 60 mg/ml (A280)): 17.48 cp
Viscosity ([9]; T = 0, 50 mM Acetate pH 4.7, 60 mg/mL): 19.7 cP
Viscosity ([9]; T = 0, 50 mM Acetate pH 4.7, 70 mg/mL): 29.2 cP
Viscosity ([9]; T = 0, 50 mM Acetate pH 4.7, 80 mg/mL): 43.6 cP
Viscosity ([9]; T = 0, 50 mM Acetate pH 4.7, 100 mg/mL): 79.2 cP
Viscosity ([9]; T = 0, 50 mM Acetate pH 4.7, theoretical concentration 50 mg/mL): 12.9 cP
Viscosity ([9]; T = 0, 100 mM Acetate pH 4.7, 50 mg/mL): 12.9 cP
Viscosity ([9]; T = 0, 100 mM Acetate pH 4.7, 60 mg/mL): 20.8 cP
Viscosity ([9]; T = 0, 100 mM Acetate pH 4.7, 70 mg/mL): 32.9 cP
Viscosity ([9]; T = 0, 100 mM Acetate pH 4.7, 80 mg/mL): 48.7 cP
Viscosity ([9]; T = 0, 100 mM Acetate pH 4.7, 100 mg/mL): 87.4 cP
Viscosity ([9]; T = 24 hrs, 50 mM Acetate pH 4.7, 50 mg/mL): 12.2 cP
Viscosity ([9]; T = 24 hrs, 50 mM Acetate pH 4.7, 60 mg/mL): 19.4 cP
Viscosity ([9]; T = 24 hrs, 50 mM Acetate pH 4.7, 70 mg/mL): 28.3 cP
Viscosity ([9]; T = 24 hrs, 100 mM Acetate pH 4.7, 50 mg/mL): 12.8 cP
Viscosity ([9]; T = 24 hrs, 100 mM Acetate pH 4.7, 60 mg/mL): 20.4 cP
Viscosity ([9]; T = 24 hrs, 100 mM Acetate pH 4.7, 70 mg/mL): 32.5 cP
Plasma concentration 24 hours following last injection of repeat dosing regimen (Day 33) ([10]; 1000 nmol/kg): 67.51 µg/mL
Plasma concentration 24 hours following single dose (Day 2) ([10]; 1000 nmol/kg): 51.57 µg/mL
Plasma concentration 24 hours following single dose (Day 2) ([10]; 3000 nmol/kg): 183.33 µg/mL
Plasma concentration 24 hours following last injection of repeat dosing regimen (Day 33) ([10]; 6000 nmol/kg): 493.60 µg/mL
degradation by DPPIV (in words) [11]: no degradation of OXM was observed

PEG30-EMCS-OXM: non-reversible form where N-(epsilon-Maleimidocaproyloxy)succinimide (EMCS) replaces Fmoc as linker
Final reduction changes in body weight (on day 33) compared to control (PEG-SH) [4, 15]: 2.4%
degradation by DPPIV (in words) [12]: no degradation of the conjugates was observed

Source: patent US20190160152A1 (OPKO BIOLOGICS LTD., priority 2016, published 2019)
